Measured values as given in patent US8492099B2, “Method of measuring enzymatic activity of adsorbed allergenic enzyme” (Alk-Abello A/S, priority 2005, dated 2013).

Tests used:
[1] = Adsorption of papain to aluminium hydroxide: active enzyme by active site titration with E-64; format: biochemical
Method: (§1) After adsorption 500 μL was taken out for further analysis and the rest of the mixture was centrifuged for 10 min at 400 rpm. The rest of the samples analysed follow the flow scheme in FIG. 12. Furthermore a control (Con) containing papain in Bis-Tris buffer in the absence of aluminium hydroxide was prepared.
The active site titration was used to estimate the amount of active enzyme in the different samples. This is in contrast to the protein concentration estimated from A280 which represents the total protein content of the sample.

[2] = Papain enzyme activity fluorescence assay (activity measurements and Michaelis-Menten kinetic), papain/aluminium hydroxide adsorption experiment; format: biochemical
Method: After measuring the enzymatic activity the maximal slope of the progress curve was estimated using the software SoftMax® PRO Life Sciences Edition, Molecular Devices, 2001. After estimating the initial velocity of the experiments they were transferred to Prism and analyzed.
as §1
Two types of enzymatic assays were performed: (i) activity measurements using a fixed substrate concentration to evaluate enzyme activity and (ii) Michaelis-Menten kinetic to estimate the kinetic parameters Vmax and KM.
All activity assays were conducted with BisTris buffer, pH 6.5, 5 mM DTT/, mM EDTA and Z-FR-AMC as substrate.

[3] = Adsorption of papain to aluminium hydroxide: protein concentration by A280; format: physicochemical; details: 100 μg/mL papain, 1.14 mg/mL aluminium hydroxide, 1 h at 4° C.; ANOVA p-value=0.615
Excerpt: The aromatic amino acids tryptophan, tyrosine and phenylalanine absorb ultraviolet light. However only tryptophan and tyrosine absorb at 280 nm and tryptophan absorbs 5 times more light than tyrosine. This is due to the […] transition in the indole ring of tryptophan where phenylalanine and tyrosine contains a phenyl group. The absorbance of a protein is linearly correlated with the amount of tryptophan and tyrosine in the protein, the length of the light path and the concentration of protein. This relationship is named Lambert-Beer's law and is given by: A=ε·l·c where A is the absorbance, ε is the molar absorption coefficient for the protein (determined by the amount of tryptophan and tyrosine in the protein) l is the length of the light path and c is the protein concentration. Thus from an absorbance measurement the concentration of protein can be estimated if the molar absorptivity coefficient is known. • Apparatuses • Lambda 800 UV/VIS Spectrometer, PerkinElmer™ • 100-QS, quartz cuvette, path length 1 cm, Hellma® • Materials and Reagents • 50 mM Bis-Tris pH 6.5, Sigma • 50 mM Tris pH 7.0, Sigma • 50 mM phosphate buffer pH 7.0, Merck • 2% Helmanex solution, Hellma Experimental Procedure
The spectrophotometer was turned on 30 min prior to use for a warm up period. […] After cleaning the cuvette 20 μL of sample was transferred to the cuvette and the absorbance was measured. […]

[4] = Papain activity over time in the absence of aluminium hydroxide; format: physicochemical; details: 10 μg/mL papain in 50 mM Bis-Tris, 4° C.
Method: Papain was mixed with 50 mM Bis-Tris buffer to a final concentration of 10 μg/mL in a total volume of 500 μL. The mixture was incubated at 4° C. and samples were taken out at 0, 30 and 60 min. The samples were diluted and incubated for 10 min in buffer containing DTT and subsequently activity was measured after addition of substrate. […] Additional loss occurs until the initiation of the enzymatic assay.

[5] = Adsorbed: papain adsorbed to aluminium hydroxide (mix 2)
[6] = Control: papain in the absence of aluminium hydroxide
[7] = activity measurements, 30 μM Z-FR-AMC

- Activity of the control lower than the activity of Mix1 ([2]; papain without vs with aluminium hydroxide): 17%
B1: papain: cysteine protease Car p 1 from the plant Carica papaya, purified, Sigma; chosen as negative control (protein, UniProt P00784 134-345, looked up)
Papain: IPEYVDWRQKGAVTPVKNQGSCGSCWAFSAVVTIEGIIKIRTGNLNEYSEQELLDCDRRSYGCNGGYPWSALQLVAQYGIHYRNTYPYEGVQRYCRSREKGPYAAKTDGVRQVQPYNEGALLYSIANQPVSVVLEAAGKDFQLYRGGIFVGPCGNKVDHAVAAVGYGPNYILIKNSWGTGWGENGYIRIKRGTGNSYGVCGLYTSSFYPVKN
- Active papain adsorbed to aluminium hydroxide (Mix3) [1]: approximately 7%
- Active papain in solution (Sup1+Sup2) [1]: 91%
- Vmax in Mix3 relative to Mix1 [2]: 7%
- Vmax in solution (Sup1+Sup2) relative to Mix1 [2]: 97%
- Km [2, 5]: 21 µM
- Vmax [2, 5]: 44.1 ng/mL · s
- kcat (Vmax/protein concentration, A280) [2, 5]: 14.58 s⁻¹
- kcat (Vmax/protein concentration, active site titration) [2, 5]: 12.18 s⁻¹
- Vmax [2, 6]: 373.9 ng/mL · s
- kcat (Vmax/protein concentration, A280) [2, 6]: 5.13 s⁻¹
- kcat (Vmax/protein concentration, active site titration) [2, 6]: 11.41 s⁻¹
- Km ([2]; Control: papain in the absence of aluminium hydroxide, Z-FR-AMC, pH 6.5): 22 µM
- Activity in Mix1 found in solution (Sup1+Sup2) [2, 7]: 96%
- Activity of papain adsorbed to aluminium hydroxide (Mix3) [2, 7]: 8%
- Difference between KM estimates of samples in presence and absence of aluminium hydroxide ([2]; one-way ANOVA p-value=0.999): no significant difference
- Part of the enzyme not bound to the adjuvant ([2]; papain with aluminium hydroxide): 93%
- Adsorption of papain to aluminium hydroxide (A280, Con vs Sup1) [3]: does not adsorb significantly
- Activity at 60 min lower than at 0 and 30 min (loss of activity) [4]: 7%
